Data published in PMC9474600 (Immunity, 2022).

B1: 310-63E6 Fab (Fab, V domains shown)
VH: QVQLVQSGAEVKKPGSSVKVSCTASGGTFSTYQFSWVRQAPGQGLEWMGRIVPIQGMDYAQKFRGRVTITADKWTSTVYMEVTSLRSEDTAVYYCATSRSMYFYYQLDVWGRGTTVTVSS
VL: EIVLTQSPGTLSLSPGERATVSCRASQSVTSTFLAWYQQRPGQAPRLLIYGASSRATGIPDRFSGSGSEADFTLTINRLEPEDFAVYYCQQYATSPWTFGQGTKVEIK
B2: 310-39G10 Fab (Fab, V domains shown)
VH: QVQLVQSGAEVKKPGSSVKVSCKASGGTFSRYTISWVRQAPGQGLEWMGRISPIAGLENYAQKFQGRVTITADISTSTAYMELSSLRSDDTAVYYCAGSSGYYQPPPYWGQGTLVTVSS
VL: EIVLTQAPFSLSLSPGERATLSCRASQSVSSSSLAWYHQKPGQAPRLLIYGASSRATGIPDRFSGSGSGTDFTLTISRLEPEDFSLYYCQQYGSSPLTFGQGTRLEIK

Biological target: Recombinant soluble HA trimer of A/New Caledonia/20/1999 (H1N1 NC99) (Influenza A virus A/New …, strain)
Experiment: cryo-EM structure

Binder	binding result
B1	binds
B2	binds
